From publication PMC7474069, “Cystathionine β-synthase is involved in cysteine biosynthesis and H2S generation in Toxoplasma gondii” (Scientific Reports, 2020)
Where “and” joins values, the source holds several entries; their conditions need not be identical. Equal entries are not always repeated.

Legend:
TgCBS [1] = molecular target: T1, TgCBS (Toxoplasma gondii, UniProt A0A125YSJ9); assay: intrinsic fluorescence titration of apo-enzyme; assay type: binding
T1 construct: gene TGME49_259180; mainly dimer with some tetramer; no heme, PLP at Lys56
T1 sequence (A0A125YSJ9 1-514): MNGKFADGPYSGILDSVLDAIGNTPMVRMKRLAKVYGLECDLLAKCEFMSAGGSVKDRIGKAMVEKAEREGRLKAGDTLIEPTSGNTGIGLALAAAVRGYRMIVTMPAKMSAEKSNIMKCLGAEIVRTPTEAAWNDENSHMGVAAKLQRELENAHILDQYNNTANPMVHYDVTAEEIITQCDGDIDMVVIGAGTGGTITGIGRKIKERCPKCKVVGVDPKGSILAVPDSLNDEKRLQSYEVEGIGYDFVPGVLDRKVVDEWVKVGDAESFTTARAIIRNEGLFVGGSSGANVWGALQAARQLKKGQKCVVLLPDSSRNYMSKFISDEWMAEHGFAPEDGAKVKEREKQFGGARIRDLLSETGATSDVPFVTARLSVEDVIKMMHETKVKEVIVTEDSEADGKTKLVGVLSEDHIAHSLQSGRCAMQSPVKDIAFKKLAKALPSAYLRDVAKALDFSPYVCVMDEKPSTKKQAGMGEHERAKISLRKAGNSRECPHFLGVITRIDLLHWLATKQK

TgCBS [2] = molecular target: T1, TgCBS; assay: lead acetate H2S assay, biphasic fit; assay type: biochemical; settings: substrate inhibition in beta-elimination; L-Cys alone; 50 mM Hepes pH 7.4; 37 °C; PLP 20 µM
Text: (§1) lead acetate H2S assay, biphasic fit on TgCBS

N[C@@H](CO)C(=O)O = assay: purified protein; settings: CBS coupled-assay conditions (MBP buffer pH 9; 37 °C)
[3] = tested on: N[C@@H](CCSC[C@H](N)C(=O)O)C(=O)O; assay: purified protein; settings: CBS coupled-assay conditions (MBP buffer pH 9; 37 °C)
TgCBS [4] = molecular target: T1, TgCBS; assay: CD spectroscopy (external aldimine formation); assay type: binding; settings: 25 mM; 20 mM sodium phosphate pH 8.5; 25 °C; substrate analog
TgCBS [5] = molecular target: T1, TgCBS; assay: lead acetate H2S assay, substrate competition; assay type: biochemical
Text: lead acetate H2S assay, substrate competition on TgCBS | The IC50 value, i.e. the concentration of L-Ser at which the H2S production

TgCBS [6] = molecular target: T1, TgCBS; assay: CD spectroscopy (aminoacrylate formation); assay type: binding; settings: 3 mM; 20 mM sodium phosphate pH 8.5; 25 °C
purified protein [7] = substrate: CC(=O)OC[C@H](N)C(=O)O; assay: purified protein; assay type: biochemical, Toxoplasma gondii; settings: co-substrate L-Hcys, MBP buffer pH 9, 37 °C, PLP 20 µM
purified protein [8] = substrate: N[C@@H](CO)C(=O)O; assay: purified protein; assay type: biochemical, Toxoplasma gondii; settings: co-substrate L-Hcys, MBP buffer pH 9, 37 °C, PLP 20 µM
purified protein [9] = substrate: N[C@@H](CCS)C(=O)O; assay: purified protein; assay type: biochemical, Toxoplasma gondii; settings: co-substrate L-Ser, MBP buffer pH 9, 37 °C, PLP 20 µM
[10] = substrate: N[C@@H](CS)C(=O)O; assay: lead acetate H2S assay, biphasic fit; assay type: biochemical, Toxoplasma gondii; settings: beta-elimination of L-Cys alone, site 1, 50 mM Hepes pH 7.4, 37 °C, PLP 20 µM
Text: as §1

[11] = molecular target: the molecule itself; assay: SEC; Superdex 200 10/30 GL, TgCBS at 1 mg/mL, 20 mM sodium phosphate pH 8.5, 150 mM NaCl, 0.1 mM DTT; masses from a calibration curve of standard proteins

Cc1ncc(COP(=O)(O)O)c(C=O)c1O [PLP]
Kd (TgCBS [1]): 0.00013 ± 1e-05 mM

N[C@@H](CS)C(=O)O [L-Cys]
TgCBS (TgCBS [2]): 36 ± 4 mM

recombinant CBL (Corynebacterium diphtheriae NCTC 13129)
Km (N[C@@H](CO)C(=O)O): 7500 ± 1400 µM
kcat (N[C@@H](CO)C(=O)O): 1.2 ± 0.2 s⁻¹
Km [3]: 800 ± 100 µM
kcat [3]: 93 ± 2 s⁻¹

C[C@H](N)C(=O)O [L-Ala]
CD spectroscopy (external aldimine formation) (TgCBS [4]): Addition of the analog L-alanine (L-Ala) to TgCBS resulted in a shift

N[C@@H](CO)C(=O)O [L-Ser]
IC50 (TgCBS [5]): 6.7 ± 1.3 mM

NC(CSCC(N)C(=O)O)C(=O)O (stereo not shown) [lanthionine]
CD spectroscopy (aminoacrylate formation) (TgCBS [6]): Binding of lanthionine to the enzyme

B1: TgCBS (Toxoplasma gondii ME49) (protein)
chain: T1 sequence (A0A125YSJ9 1-514)
notes: mainly dimer with some tetramer; no heme, PLP at Lys56
Km (purified protein [7]): 1300 ± 200 µM
kcat (purified protein [7]): 5.5 ± 0.1 s⁻¹
kcat/Km (purified protein [7]): 4200 ± 700 M⁻¹ s⁻¹
Km (purified protein [8]): 420 ± 40 µM
kcat (purified protein [8]): 6.3 ± 0.4 s⁻¹
kcat/Km (purified protein [8]): 15000 ± 2000 M⁻¹ s⁻¹
Km (purified protein [9]): 230 ± 30 µM
kcat (purified protein [9]): 6.3 ± 0.4 s⁻¹
kcat/Km (purified protein [9]): 27000 ± 5000 M⁻¹ s⁻¹
Km [10]: 4700 ± 900 µM
kcat [10]: 2.6 ± 0.3 s⁻¹
kcat/Km [10]: 600 ± 200 M⁻¹ s⁻¹

B2: Cystathionine β-synthase from Toxoplasma gondii (enzyme, Toxoplasma gondii (strain ME49), UniProt A0A125YSJ9 1-514, looked up)
chain: T1 sequence (A0A125YSJ9 1-514)
modifications: PLP bound to active site Lys56 (internal aldimine)
notes: Cystathionine β-synthase, Toxoplasma gondii strain ME49, gene TGME49_259180 (ToxoDB), complete cDNA as a synthetic gene; 514 amino acids (55.8 kDa); Cloned into pET21a (NdeI/BamHI); Mainly a dimer in solution, with some higher-order oligomers (e.g. tetramer); also called TgCBS; T. gondii CBS; source: E. coli Rosetta (DE3), purified (Ni-sepharose)
stoichiometry N [11]: 2 and 4
